Data reported in US20170101472A1 (Regeneron, published 2017).

T1: monkey LAG3 (mfLAG3) expressed on HEK293 cells (cynomolgus monkey, UniProt P18627 24-525 (human entry))
T1 construct: also called HEK293/mfLAG3; HEK293-mfLAG3
T1 chain: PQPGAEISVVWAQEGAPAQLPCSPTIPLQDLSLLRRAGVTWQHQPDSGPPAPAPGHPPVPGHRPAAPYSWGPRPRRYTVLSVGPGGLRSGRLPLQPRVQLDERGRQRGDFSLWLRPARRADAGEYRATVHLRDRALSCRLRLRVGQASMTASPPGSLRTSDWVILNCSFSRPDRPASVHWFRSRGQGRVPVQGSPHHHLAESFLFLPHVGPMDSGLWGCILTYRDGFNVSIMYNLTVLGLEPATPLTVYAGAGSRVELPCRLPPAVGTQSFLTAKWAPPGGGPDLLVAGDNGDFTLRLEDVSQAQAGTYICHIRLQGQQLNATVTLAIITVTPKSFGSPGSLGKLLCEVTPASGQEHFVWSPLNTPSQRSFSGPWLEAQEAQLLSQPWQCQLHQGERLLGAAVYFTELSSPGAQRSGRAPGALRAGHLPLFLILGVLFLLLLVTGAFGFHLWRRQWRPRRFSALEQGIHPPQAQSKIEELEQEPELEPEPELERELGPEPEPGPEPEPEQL

T2: human LAG3 expressed on HEK293 cells (human, UniProt P18627 23-525)
T2 construct: also called hLAG3; HEK293/hLAG3
T2 sequence: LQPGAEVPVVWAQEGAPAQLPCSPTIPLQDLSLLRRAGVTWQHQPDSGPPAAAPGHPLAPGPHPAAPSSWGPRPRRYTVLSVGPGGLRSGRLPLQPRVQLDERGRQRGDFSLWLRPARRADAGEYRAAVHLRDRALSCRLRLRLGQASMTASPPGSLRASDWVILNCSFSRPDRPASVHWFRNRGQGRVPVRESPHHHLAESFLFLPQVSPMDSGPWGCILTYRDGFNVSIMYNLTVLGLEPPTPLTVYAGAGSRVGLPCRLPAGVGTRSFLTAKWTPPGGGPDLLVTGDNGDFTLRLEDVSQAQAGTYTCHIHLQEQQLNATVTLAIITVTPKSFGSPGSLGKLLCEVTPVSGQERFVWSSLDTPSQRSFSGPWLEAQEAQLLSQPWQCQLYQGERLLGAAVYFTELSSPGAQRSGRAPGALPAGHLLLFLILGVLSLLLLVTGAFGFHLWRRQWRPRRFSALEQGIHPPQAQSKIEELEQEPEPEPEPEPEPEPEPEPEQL


Assays:
[1] = target: T1, monkey LAG3 (mfLAG3) expressed on …; assay: flow cytometry, HEK293/mfLAG3 cells
Protocol: (§1) The serially diluted antibodies were added to the cell suspension and incubated for 15-30 minutes on ice. The cells were centrifuged and pellets were washed with staining buffer to remove unbound antibodies. […] The cells were centrifuged and pellets were washed with staining buffer to remove unbound secondary F(ab′)2 and fixed overnight with a 1:1 dilution of Cytofix (BD Biosciences, #554655) and staining buffer. Following day, fixed cells were centrifuged and pellets were washed with staining buffer, resuspended and filtered. Fluorescence measurements were acquired on HyperCyt® cytometer and analyzed in ForeCyt™ (IntelliCyt; Albuquerque, N. Mex.) to determine the mean fluorescence intensities (MFI). The EC₅₀ values were calculated from a four-parameter logistic equation over an 11-point response curve using GraphPad Prism. EC₅₀ was defined as the concentration of antibody at which 50% of maximal binding signal is detected. The MFI ratio for each antibody was calculated by dividing the MFI at 100 nM by MFI at 0 nM of antibody concentration.

[2] = target: T1, monkey LAG3 (mfLAG3) expressed on …; assay: electrochemiluminescence cell binding, HEK293-mfLAG3
Protocol: To investigate the ability of a panel of anti-LAG3 monoclonal antibodies to bind cell-surface expressed LAG3, an in vitro binding assay utilizing human and monkey LAG3 expressing cell lines in an electrochemiluminescence based detection platform [Meso Scale Diagnostics, Rockville, Md.—(MSD)] was developed.
Experiments were carried out according to following procedure. Cells from the three cell lines described above were rinsed once in 1×PBS buffer without Ca²⁺/Mg²⁺ followed by 10-minute incubation at 37° C. with Enzyme Free Cell Dissociation Solution. […] Approximately 10,000 cells per well in the cell-washing buffer were seeded into the 96-well carbon electrode plates (MULTI-ARRAY high bind plate, MSD) and incubated for 1 hour at 37° C. to allow the cells to adhere. Nonspecific binding sites were blocked by 2% BSA (w/v) in PBS for 1 hour at room temperature. […] The plates were then washed to remove the unbound antibodies using an AquaMax2000 plate washer (MDS Analytical Technologies). The plate-bound antibodies were detected with a SULFO-TAG™-conjugated anti-human IgG antibody (MSD) for 1 hour at room temperature. After washes, the plates were developed with the Read Buffer (MSD) according to manufacturer's recommended procedure and the luminescent signals were recorded with a SECTOR Imager 6000 (MSD) instrument. The direct binding signals (in relative light units—RLU) were analyzed as a function of the antibody concentration and the data were fitted with a sigmoidal (four-parameter logistic) dose-response model using Graph Pad Prism™ software. The potency of each antibody was determined by calculating EC₅₀.

[3] = target: T1, monkey LAG3 (mfLAG3) expressed on …; assay: electrochemiluminescence cell binding
[4] = target: T2, human LAG3 expressed on HEK293 cells; assay: flow cytometry, HEK293/hLAG3 cells
Protocol: as §1

[5] = target: T1, monkey LAG3 (mfLAG3) expressed on …; assay: flow cytometry, HEK293/mfLAG3 cells; FACS on HEK293/mfLAG3 cells
Protocol: as §1

Binder	EC50 [1]	Ratio of MFI (100 nM/0 nM) [1]	EC50 [2]	Ratio of 100 nM antibody binding HEK293-mfLAG3 to HEK293 cells [3]	EC50 [4]	Ratio of MFI (100 nM/0 nM) [4]	EC50 [5]	binding result [1]
H4sH15498P2 (antibody, V domains shown, H4sH = human IgG4 Fc with 2 or more amino acid changes as disclosed in US20140243504) VH: EVQLVESGGGLVQPGGSLRLSCAASGFTFTSYAMTWVRQAPGKGLEWVSDISGSGGRTYYADSVKGRFTISRDNSKNMLYLQMNILRAEDTAVYHCAKGTGQQVDLYNYYYALDVWGQGTTVTVSS VL: not shown	> 10 nM	12.1	20 nM	32.7	7.92 nM	401		
H4H15498P2 (antibody, human IgG4, V domains shown, H4H = human IgG4 Fc with S108P hinge mutation) VH: EVQLVESGGGLVQPGGSLRLSCAASGFTFTSYAMTWVRQAPGKGLEWVSDISGSGGRTYYADSVKGRFTISRDNSKNMLYLQMNILRAEDTAVYHCAKGTGQQVDLYNYYYALDVWGQGTTVTVSS VL: not shown	> 10 nM	12.8	9.68 nM	13.8	5.76 nM	305		
H4H17828P2 (antibody, human IgG4, V domains shown, H4H = human IgG4 Fc with S108P hinge mutation) VH: EVQLVESGGGLVQPGGSLRLSCAASGFTFKTYAMSWVRQAPGRGLEWVSGISGSGSTSYYADSVKGRFTISRDNYKKTLSLQMNSLRAEDTAVYYCALDIMATVGGLFNNWGQGTLVTVSS VL: not shown			13.1 nM	6	2.65 nM	355		
H4H17819P (antibody, human IgG4, V domains shown, H4H = human IgG4 Fc with S108P hinge mutation) VH: EVQLVESGGGLVQPGGSLRLSCVASGFTFSLYAMTWVRQVPGKGLEWVSTISGSGGGTYYTDSVKGRFTISRDNSKNTLYLQMNSLRADDTAVFYCTKESTTGTYSYFYGMDVWGQGTTVTVSS VL: DIQMTQSPSSLSASVGDRVTITCRASQTISSYLNWYQQKPGKAPKLLIYAASSLQSGVPSRFSGSGSGTDFTLTLSGLQPEDFATYYCQQSYSTPLTFGGGTKVEIK	> 10 nM	12.1	40.2 nM	8.3	2.79 nM	436		
H4H17826P2 (antibody, human IgG4, V domains shown, H4H = human IgG4 Fc with S108P hinge mutation) VH: EVQLVESGGGLVQPGGSLRLSCAASGFTFSSYEMNWVRQAPGKGLEWVSYISSSGNTKDYAGSVKGRVTISRDNAKNLLYLQMNSLRAEDTAVYHCARDGGHYDILTGSMSYYYYALDVWGQGTTVTVSS VL: not shown	> 10 nM	14.3	7.85 nM	4.7	3.86 nM	414		

Now those with a lower EC50 [4], led by results:

EC50 [1]	Ratio of MFI (100 nM/0 nM) [1]	EC50 [2]	Ratio of 100 nM antibody binding HEK293-mfLAG3 to HEK293 cells [3]	EC50 [4]	Ratio of MFI (100 nM/0 nM) [4]	EC50 [5]	binding result [1]	Binder
> 10 nM	8.8			2.31 nM	206			H4H15483P (antibody, human IgG4, V domains shown, H4H = human IgG4 Fc with S108P hinge mutation) VH: QVQLQQWGAGLLPPSETLSLICAVYGGSFSGYYWSWIRQPPGKGLEWIGEINHRGSTNYNPSLKSRATISVDTSKNQFSLKLSSVTAADTAVYYCSRGEDYYDSSGYSYYFDYWGQGTLVTVSS VL: EIVLTQSPATLSLSPGERATLSCRASQSVSSYLAWYQQKPGQAPRLLIYDASNRATGIPARFSGSGSGTDFTLTISSLEPEDFAVYYCQQRSNWPLTFGGGTKVEIK
				1.25 nM	305			H4H17823P (antibody, human IgG4, V domains shown, H4H = human IgG4 Fc with S108P hinge mutation) VH: EVQLLESGGGLVQPGGSLRLSCAASGFTFRSYAMSWVRQAPGKGLEWVSVISGGGGRTYYTDSVKGRFTISRDNSKSMLYLQMNSLRAEDTAIYYCAKERVTGIDHYYYGVDVWGQGTTVTVSS VL: DIQMTQSPSSLSASVGDRVTITCRASQSISSYLNWYQQKPGKAPKLLIYATSSLQSGVPSRFSGSASGTDFTLAISSLQPEDFATYYCQQSYTTPLTFGGGTKVEIK
				1.11 nM		1.15 nM		H4sH15482P (antibody, human IgG4 S228P, kappa, H4sH = modified human IgG4 Fc; also called mAb1) heavy: QVQLVESGGGVVQPGRSLRLSCVASGFTFSSYGMHWVRQAPGKGLEWVAIIWYDGSNKYYADSVKGRFTISRDNSKNTQYLQMNSLRAEDTAVYYCASVATSGDFDYYGMDVWGQGTTVTVSSASTKGPSVFPLAPCSRSTSESTAALGCLVKDYFPEPVTVSWNSGALTSGVHTFPAVLQSSGLYSLSSVVTVPSSSLGTKTYTCNVDHKPSNTKVDKRVESKYGPPCPPCPAPPVAGPSVFLFPPKPKDTLMISRTPEVTCVVVDVSQEDPEVQFNWYVDGVEVHNAKTKPREEQFNSTYRVVSVLTVLHQDWLNGKEYKCKVSNKGLPSSIEKTISKAKGQPREPQVYTLPPSQEEMTKNQVSLTCLVKGFYPSDIAVEWESNGQPENNYKTTPPVLDSDGSFFLYSRLTVDKSRWQEGNVFSCSVMHEALHNHYTQKSLSLSLGK light: EIVLTQSPATLSLSPGERTTLSCRASQRISTYLAWYQQKPGQAPRLLIYDASKRATGIPARFSGSGSGTGFTLTISSLEPEDFAVYYCQQRSNWPLTFGGGTKVEIKRTVAAPSVFIFPPSDEQLKSGTASVVCLLNNFYPREAKVQWKVDNALQSGNSQESVTEQDSKDSTYSLSSTLTLSKADYEKHKVYACEVTHQGLSSPVTKSFNRGEC
1.35 nM	21.5	73.9 nM	2.1	0.752 nM	203			H4H15479P (antibody, human IgG4, V domains shown) VH: QVQLQQWGAGLLNPSETLSLTCAVYGGAFSDYYWNWIRQPPGKGLEWIGEINHRGSTNYNPSLKSRVTISVDTSKNQFSLRMSSVTAADAAVYYCARGEDYDIWNGYYQEKWGQGTLVTVSS VL: EIVLTQSPATLSLSPGERATLSCRASQSISTYLAWYQQKPGQAPRLLIYDASKRATGIPARFSGSGSGTDFTLTISSLEPEDFVVYYCHQRSNWPLTFGGGTKVEIK
	1			0.665 nM	182		no binding (tested: 100 nM)	H4sH15462P (antibody, V domains shown, H4sH = human IgG4 Fc with 2 or more amino acid changes as disclosed in US20140243504) VH: QVQLVQSGAEVKKPGASVKVSCKASGYTFTNYYIHWVRQAPGQGLDWMGIINPGGGNTNYAQKFLGRVTMTRDTSTTTVYMELSSLRSEDTAIYYCARENWNSYFDNWGQGTLVTVSS VL: not shown
	2.9			0.3 nM	62.6		no binding (tested: 100 nM)	H4H15462P (antibody, human IgG4, V domains shown, H4H = human IgG4 Fc with S108P hinge mutation) VH: QVQLVQSGAEVKKPGASVKVSCKASGYTFTNYYIHWVRQAPGQGLDWMGIINPGGGNTNYAQKFLGRVTMTRDTSTTTVYMELSSLRSEDTAIYYCARENWNSYFDNWGQGTLVTVSS VL: not shown
